According to the supplement of paper PMC10724198:
± gives the standard deviation of the averaged measurements.

Tested on: Saccharomyces cerevisiae
Assay: protein stability index of tFT-peptide fusion (C-terminal peptide) (PSI (0-1 scale)); higher = more stable (slower turnover)
Details: genetic background: doa10 deletion; temperature: 30 C
Protocol: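 MPS profiling in S. cerevisiae of the tFT-X12 degron library: putative degron peptides plus stable controls, 12 aa, fused to the C-terminus of a sfGFP-mCherry timer. Cells are FACS-sorted into 8 mCherry/sfGFP bins and deep-sequenced. PSI runs from 0 (unstable) to 1 (stable). Backgrounds are wild type, das1Δ and doa10Δ at 30 °C, and wild type, das1Δ, cdc34-1 and cdc53-1 at 37 °C; 2-3 technical replicates each.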
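Also: PSI is a weighted mean of sequencing reads over stability bins, variants kept only with over 10 reads, mCherry proximal and sfGFP distal, peptide attached via GGGS linker.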

Sequence | protein stability index
VRLHIAMWLRRC | 0.138 ± 0.015
VRNKFSYVLRLN | 0.0804 ± 0.019
VRVLPFCWCIVR | 0.263 ± 0.019
VSIVLHSVPCGG | 0.361 ± 0.011
VSRVHIRIEGNH | 0.635 ± 0.026
VSVQVRCCPWVG | 0.618 ± 0.031
VVATLRCLRCSV | 0.236 ± 0.014
VVCFVVCGFYLG | 0.224 ± 0.011
VVCLLGIFYGFC | 0.293 ± 0.021
VVLCQVCVLWGW | 0.148 ± 0.0088
VVLVLLCIGRLL | 0.27 ± 0.0062
VVWIQRTVLSLI | 0.151 ± 0.0065
VWFFGVVLGGLW | 0.4157 ± 0.00077
VWRLCFPFALVR | 0.225 ± 0.0026
VWVISLCIGGVG | 0.205 ± 0.011
VYFRMGFMRVCV | 0.32 ± 0.013
VYFRYWLLVVVF | 0.117 ± 0.029
VYRILFWFLCFG | 0.4545 ± 0.0021
WDPEVVHRLWLN | 0.125 ± 0.0063
WFCCAQRGVIVG | 0.311 ± 0.011
WFFRLFFLFFSG | 0.563 ± 0.022
WFLMVILYTVYG | 0.149 ± 0.033
WGCTGGRGRLVC | 0.254 ± 0.011
WGGIASLVASAA | 0.214 ± 0.006

Sequence | protein stability index
WLFASCVFFWSS | 0.355 ± 0.0086
WLSFAIECGMVW | 0.2135 ± 0.0014
WLTCSLVFNVFW | 0.448 ± 0.032
WQSFRDKLIKGN | 0.188 ± 0.034
WRCECELASACA | 0.31 ± 0.0062
WRGALHPTPVAA | 0.198 ± 0.0084
WSNICFWCGVWS | 0.356 ± 0.0059
WSWVFVVLRFGR | 0.412 ± 0.025
WVLFRLPYQFFS | 0.368 ± 0.0073
WWDCAVWVRCGG | 0.407 ± 0.013
YCAMVAVGVVGG | 0.306 ± 0.016
YCLSCLAKASLM | 0.164 ± 0.0029
YFCVELSVFGFF | 0.324 ± 0.02
YFFFLFFLLPPF | 0.416 ± 0.007
YGHLPLLVLFCV | 0.211 ± 0.0055
YHRKAILMCTFS | 0.3072 ± 0.00055
YIFLPIALVFFP | 0.333 ± 0.02
YLFFHMVVLVVV | 0.0943 ± 0.019
YLGSLQVPVHLF | 0.226 ± 0.013
YMPKHKIQKLMQ | 0.425 ± 0.012
YMVSLSFTLVRS | 0.297 ± 0.024
YSGRYRTLVRCW | 0.199 ± 0.0059
YVCVVSVLLGLL | 0.19367 ± 8.4e-05

Same assay, conditions: genetic background: wild type; temperature: 30 C

Sequence | protein stability index
VLCFTSAYHRLV | 0.262 ± 0.019
VLFLLLFVSRVA | 0.224 ± 0.03
VLLCFFLGIVGF | 0.299 ± 0.012
VLLSFVFCGWVR | 0.349 ± 0.025
VLLVSVFVATLL | 0.135 ± 0.022
VLVVASLRFSFF | 0.2 ± 0.014
VLVVRVLLSDLV | 0.17 ± 0.012
VLVVWLGICFGY | 0.201 ± 0.016
VMYRGVRISWFL | 0.354 ± 0.036
VNILFCLFFLLV | 0.36 ± 0.0062
VPQMLVSVCLSN | 0.26 ± 0.029
VPQQWFAETGRC | 0.662 ± 0.028
VRFPVFFIILFL | 0.142 ± 0.029
VRGSPNVMWKSQ | 0.238 ± 0.022
VRLHIAMWLRRC | 0.0999 ± 0.025
VRNKFSYVLRLN | 0.11 ± 0.029
VRVLPFCWCIVR | 0.187 ± 0.017
VSIVLHSVPCGG | 0.392 ± 0.024
VSRVHIRIEGNH | 0.634 ± 0.035
VSVQVRCCPWVG | 0.629 ± 0.016
VVATLRCLRCSV | 0.273 ± 0.043

Sequence | protein stability index
VVCFVVCGFYLG | 0.242 ± 0.051
VVCLLGIFYGFC | 0.307 ± 0.031
VVLCQVCVLWGW | 0.151 ± 0.029
VVLVLLCIGRLL | 0.3 ± 0.026
VVWIQRTVLSLI | 0.184 ± 0.027
VWFFGVVLGGLW | 0.421 ± 0.018
VWRLCFPFALVR | 0.132 ± 0.025
VWVISLCIGGVG | 0.225 ± 0.021
VYFRMGFMRVCV | 0.344 ± 0.027
VYFRYWLLVVVF | 0.101 ± 0.026
VYRILFWFLCFG | 0.412 ± 0.01
WDPEVVHRLWLN | 0.14 ± 0.0092
WFCCAQRGVIVG | 0.336 ± 0.026
WFFRLFFLFFSG | 0.371 ± 0.019
WFLMVILYTVYG | 0.187 ± 0.032
WGCTGGRGRLVC | 0.295 ± 0.013
WGGIASLVASAA | 0.259 ± 0.019
WLFASCVFFWSS | 0.37 ± 0.0092
WLSFAIECGMVW | 0.249 ± 0.026
WLTCSLVFNVFW | 0.389 ± 0.026
WQSFRDKLIKGN | 0.204 ± 0.036

Sequence | protein stability index
WRCECELASACA | 0.361 ± 0.024
WRGALHPTPVAA | 0.253 ± 0.029
WSNICFWCGVWS | 0.39 ± 0.024
WSWVFVVLRFGR | 0.394 ± 0.024
WVLFRLPYQFFS | 0.393 ± 0.022
WWDCAVWVRCGG | 0.382 ± 0.019
YCAMVAVGVVGG | 0.334 ± 0.018
YCLSCLAKASLM | 0.19 ± 0.0066
YFCVELSVFGFF | 0.358 ± 0.023
YFFFLFFLLPPF | 0.356 ± 0.034
YGHLPLLVLFCV | 0.237 ± 0.023
YHRKAILMCTFS | 0.299 ± 0.017
YIFLPIALVFFP | 0.319 ± 0.014
YLFFHMVVLVVV | 0.105 ± 0.048
YLGSLQVPVHLF | 0.255 ± 0.019
YMPKHKIQKLMQ | 0.46 ± 0.023
YMVSLSFTLVRS | 0.333 ± 0.013
YSGRYRTLVRCW | 0.236 ± 0.033
YVCVVSVLLGLL | 0.226 ± 0.015

Same assay, conditions: genetic background: wild type; temperature: 37 C

Sequence | protein stability index
VLCFTSAYHRLV | 0.5171 ± 0.0028
VLFLLLFVSRVA | 0.381 ± 0.042
VLLCFFLGIVGF | 0.489 ± 0.027
VLLSFVFCGWVR | 0.4963 ± 0.0042
VLLVSVFVATLL | 0.284 ± 0.0077
VLVVASLRFSFF | 0.38 ± 0.0063
VLVVRVLLSDLV | 0.338 ± 0.01
VLVVWLGICFGY | 0.299 ± 0.0044
VMYRGVRISWFL | 0.449 ± 0.0086
VNILFCLFFLLV | 0.4772 ± 0.0041
VPQMLVSVCLSN | 0.392 ± 0.033
VPQQWFAETGRC | 0.742 ± 0.014
VRFPVFFIILFL | 0.202 ± 0.0029
VRGSPNVMWKSQ | 0.508 ± 0.033
VRLHIAMWLRRC | 0.18975 ± 1.6e-05
VRNKFSYVLRLN | 0.138 ± 0.037
VRVLPFCWCIVR | 0.259 ± 0.046
VSIVLHSVPCGG | 0.519 ± 0.011
VSRVHIRIEGNH | 0.70121 ± 0.00047
VSVQVRCCPWVG | 0.709 ± 0.011
VVATLRCLRCSV | 0.441 ± 0.013
